From article PMC7806870

How the values were obtained:
[1] = target: extracellular domain of the human β-klotho protein (human) (UniProt Q86Z14)
[2] = target: extracellular domain of the human β-klotho protein (human) (UniProt Q86Z14); remark: listed apart in the source
[3] = target: extracellular domain of the human β-klotho protein (human) (UniProt Q86Z14); experiment: BLI
GLP-1 receptor [4] = target: GLP-1 receptor (UniProt P43220)
GLP-1 receptor [5] = target: GLP-1 receptor (UniProt P43220); remark: listed apart in the source

Sequence of extracellular domain of the human β-klotho protein (human) (Q86Z14 1-996): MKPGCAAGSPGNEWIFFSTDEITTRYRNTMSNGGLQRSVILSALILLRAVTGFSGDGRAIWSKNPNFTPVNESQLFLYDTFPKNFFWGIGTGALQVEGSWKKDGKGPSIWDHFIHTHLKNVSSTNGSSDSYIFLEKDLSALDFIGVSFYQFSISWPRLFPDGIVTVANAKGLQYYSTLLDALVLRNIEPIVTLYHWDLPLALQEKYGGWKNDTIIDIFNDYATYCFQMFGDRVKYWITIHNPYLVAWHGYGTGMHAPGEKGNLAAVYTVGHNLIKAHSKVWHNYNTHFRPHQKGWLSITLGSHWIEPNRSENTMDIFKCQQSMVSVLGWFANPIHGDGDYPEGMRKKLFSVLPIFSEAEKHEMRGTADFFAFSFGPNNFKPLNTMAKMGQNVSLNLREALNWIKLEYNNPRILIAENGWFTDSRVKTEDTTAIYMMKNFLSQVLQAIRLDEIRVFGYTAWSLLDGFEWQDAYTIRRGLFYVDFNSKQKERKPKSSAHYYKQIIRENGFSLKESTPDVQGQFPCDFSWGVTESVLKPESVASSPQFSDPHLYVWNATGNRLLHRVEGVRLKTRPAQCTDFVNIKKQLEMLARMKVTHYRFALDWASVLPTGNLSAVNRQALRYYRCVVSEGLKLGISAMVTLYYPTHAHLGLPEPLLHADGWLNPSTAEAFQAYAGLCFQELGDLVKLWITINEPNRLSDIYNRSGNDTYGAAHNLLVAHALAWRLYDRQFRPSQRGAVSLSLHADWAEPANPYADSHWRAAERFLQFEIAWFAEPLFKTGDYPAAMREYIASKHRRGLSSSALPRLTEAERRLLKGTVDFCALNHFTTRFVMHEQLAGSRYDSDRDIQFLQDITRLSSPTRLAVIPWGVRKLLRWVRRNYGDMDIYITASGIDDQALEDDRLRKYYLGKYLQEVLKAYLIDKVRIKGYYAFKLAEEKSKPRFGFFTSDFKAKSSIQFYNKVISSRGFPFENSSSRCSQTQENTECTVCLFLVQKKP
Sequence of GLP-1 receptor (P43220 24-463): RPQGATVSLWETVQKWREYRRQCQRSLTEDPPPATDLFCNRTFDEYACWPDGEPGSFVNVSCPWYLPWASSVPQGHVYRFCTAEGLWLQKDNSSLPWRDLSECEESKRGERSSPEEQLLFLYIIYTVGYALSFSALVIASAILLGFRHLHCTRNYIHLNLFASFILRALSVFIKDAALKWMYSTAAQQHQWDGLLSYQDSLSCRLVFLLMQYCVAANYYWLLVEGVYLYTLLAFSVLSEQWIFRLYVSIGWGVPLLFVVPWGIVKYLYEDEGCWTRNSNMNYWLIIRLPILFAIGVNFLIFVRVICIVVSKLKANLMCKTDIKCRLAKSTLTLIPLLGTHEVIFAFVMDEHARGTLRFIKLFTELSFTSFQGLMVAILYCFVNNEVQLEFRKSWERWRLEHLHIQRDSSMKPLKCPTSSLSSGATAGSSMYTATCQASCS

Substance	EC50 of ERK1/2 phosphorylation in HEK293 cells expressing β-Klotho (Fig. 2a) [1] [nM]	EC50 of cAMP in HEK293 cells expressing both GLP-1R and β-Klotho (Fig. 2c) [2] [nM]	Kd [3] [nM]	EC50 of cAMP production in HEK293 cells expressing GLP-1R alone (Fig. 2b) (GLP-1 receptor [4]) [nM]	EC50 of cAMP in HEK293 cells expressing both GLP-1R and β-Klotho (Fig. 2c) (GLP-1 receptor [5]) [nM]
Fc-FGF21 (L98R, S167H, P171A, R175L) (Fc fusion)	1.13	305	0.316		
Fc-FGF21 (L98R, P171A) (Fc fusion)			0.767		
Dulaglutide (Fc fusion)				0.06	0.21
GLP-1-Fc-FGF21 (L98R, S167H, P171A, R175L) (Fc fusion)	1.52		0.0924	0.15	
Fc-FGF21 (L98R, S167H, P171A) (Fc fusion)			0.59		
GLP-1-Fc-FGF21 (L98R, S167H, P171A) (Fc fusion)			0.24		
